T1: Strep-RapZ (N-terminally Strep-tagged RapZ) (Escherichia coli, UniProt P0A894 1-284)
T1 construct: it is not measured here; also called YhbJ; source: purified recombinant protein (procedure in the Appendix Supplementary Methods); not shown: Strep, N-terminal, kept
T1 sequence (looked up): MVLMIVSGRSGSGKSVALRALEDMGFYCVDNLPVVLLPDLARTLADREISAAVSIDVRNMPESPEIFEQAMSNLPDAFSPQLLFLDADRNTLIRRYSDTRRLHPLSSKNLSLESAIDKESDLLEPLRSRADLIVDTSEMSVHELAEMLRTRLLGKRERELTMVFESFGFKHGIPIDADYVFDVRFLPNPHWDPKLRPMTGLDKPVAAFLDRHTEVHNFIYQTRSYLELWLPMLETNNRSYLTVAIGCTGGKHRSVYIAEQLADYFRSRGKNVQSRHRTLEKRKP


What was measured:
[1] = molecular target: RapZ (Escherichia coli, UniProt P0A894); assay: SPR (Biacore, single-cycle kinetics); also co-purification detected by HILIC-MS/MS; format: binding
[2] = molecular target: T1, Strep-RapZ (N-terminally Strep-tagged …); assay: SPR; Biacore T200, 25°C; Strep-RapZ (200–400 RU) captured on a CM5 chip coated with Strep-Tactin XT; QseE-His10 or QseF-His10 injected at 10 nM, 50 nM, 2 × 100 nM, 250 nM, 500 nM and 1,000 nM, multicycle; HBS-EP buffer (10 mM HEPES pH 7.4, 150 mM NaCl, 3 mM EDTA, 0.005% P20); overall affinities; details: both partners purified

Kd [2] [µM]	koff [2] [s⁻¹]	kon [2] [M⁻¹ s⁻¹]	Molecule	Kd [1] [µM]
–	–	–	N[C@H]1C(O)O[C@H](COP(=O)(O)O)[C@@H](O)[C@@H]1O (stereo partly shown) [GlcN6P]	0.186
12	0.054	4500	QseE’-His10 (soluble cytoplasmic C-terminal part of kinase QseE, aa 196–475, with the HAMP and transmitter domains) (domain or fragment, Escherichia coli, UniProt P52101 196-475, looked up, Histidine kinase QseE (a.k.a. GlrK, YfhK) of Escherichia coli, cytoplasmic part aa 196-475 (HAMP and transmitter domains); also called His10-tagged QseE’; GlrK; source: purified recombinant protein (procedure in the Appendix Supplementary Methods)) MIIGPVKNIERMINRLGEGRSLGNSVSFSGPSELRSVGQRILWLSERLSWLESQRHQFLRHLSHELKTPLASMREGTELLADQVVGPLTPEQKEVVSILDSSSRNLQKLIEQLLDYNRKQADSAVELENVELAPLVETVVSAHSLPARAKMMHTDVDLKATACLAEPMLLMSVLDNLYSNAVHYGAESGNICLRSSLHGARVYIDVINTGTPIPQEERAMIFEPFFQGSHQRKGAVKGSGLGLSIARDCIRRMQGELYLVDESGQDVCFRIELPSSKNTK	–

Source: PMC7073468, “Small RNA‐binding protein RapZ mediates cell envelope precursor sensing and signaling in Escherichia coli” (The EMBO Journal, 2020)
